Test results taken from patent US20110165116A1.

How the values were obtained:
CCR2 (mouse) = CCR2 (mouse) (UniProt P51683); experiment: cell-based or functional assay
[1] = target: ICAM-1-Fc (Homo sapiens (Human)) (UniProt P05362); experiment: laminar flow adhesion assay, human T cells on coated ICAM-1-Fc
Sequence of UniProt P05362 (P05362 28-480 limits assumed): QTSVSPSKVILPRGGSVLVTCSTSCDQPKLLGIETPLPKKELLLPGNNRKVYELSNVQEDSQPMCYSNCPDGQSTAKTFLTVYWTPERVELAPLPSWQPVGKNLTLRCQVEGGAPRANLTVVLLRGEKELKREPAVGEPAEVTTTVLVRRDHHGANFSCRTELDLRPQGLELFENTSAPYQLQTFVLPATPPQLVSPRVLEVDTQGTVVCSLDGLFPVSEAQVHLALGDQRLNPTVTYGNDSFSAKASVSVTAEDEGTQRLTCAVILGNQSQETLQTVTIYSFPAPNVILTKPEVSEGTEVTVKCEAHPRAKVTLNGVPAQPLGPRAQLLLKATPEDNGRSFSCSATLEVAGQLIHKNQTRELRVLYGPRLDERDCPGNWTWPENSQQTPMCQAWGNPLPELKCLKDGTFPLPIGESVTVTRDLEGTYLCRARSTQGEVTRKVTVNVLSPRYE

Sequence of UniProt P51683 (P51683 whole entry): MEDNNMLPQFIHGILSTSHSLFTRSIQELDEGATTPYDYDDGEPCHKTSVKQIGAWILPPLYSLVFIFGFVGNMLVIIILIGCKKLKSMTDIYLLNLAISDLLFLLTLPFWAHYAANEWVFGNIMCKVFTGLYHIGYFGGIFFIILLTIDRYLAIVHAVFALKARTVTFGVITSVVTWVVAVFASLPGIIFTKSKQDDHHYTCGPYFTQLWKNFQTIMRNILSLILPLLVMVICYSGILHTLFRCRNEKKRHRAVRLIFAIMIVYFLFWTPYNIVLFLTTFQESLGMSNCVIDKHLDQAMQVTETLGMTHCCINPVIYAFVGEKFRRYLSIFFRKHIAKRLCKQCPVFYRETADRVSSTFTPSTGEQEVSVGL
Sequence of LFA-1 (P20701 26-1170): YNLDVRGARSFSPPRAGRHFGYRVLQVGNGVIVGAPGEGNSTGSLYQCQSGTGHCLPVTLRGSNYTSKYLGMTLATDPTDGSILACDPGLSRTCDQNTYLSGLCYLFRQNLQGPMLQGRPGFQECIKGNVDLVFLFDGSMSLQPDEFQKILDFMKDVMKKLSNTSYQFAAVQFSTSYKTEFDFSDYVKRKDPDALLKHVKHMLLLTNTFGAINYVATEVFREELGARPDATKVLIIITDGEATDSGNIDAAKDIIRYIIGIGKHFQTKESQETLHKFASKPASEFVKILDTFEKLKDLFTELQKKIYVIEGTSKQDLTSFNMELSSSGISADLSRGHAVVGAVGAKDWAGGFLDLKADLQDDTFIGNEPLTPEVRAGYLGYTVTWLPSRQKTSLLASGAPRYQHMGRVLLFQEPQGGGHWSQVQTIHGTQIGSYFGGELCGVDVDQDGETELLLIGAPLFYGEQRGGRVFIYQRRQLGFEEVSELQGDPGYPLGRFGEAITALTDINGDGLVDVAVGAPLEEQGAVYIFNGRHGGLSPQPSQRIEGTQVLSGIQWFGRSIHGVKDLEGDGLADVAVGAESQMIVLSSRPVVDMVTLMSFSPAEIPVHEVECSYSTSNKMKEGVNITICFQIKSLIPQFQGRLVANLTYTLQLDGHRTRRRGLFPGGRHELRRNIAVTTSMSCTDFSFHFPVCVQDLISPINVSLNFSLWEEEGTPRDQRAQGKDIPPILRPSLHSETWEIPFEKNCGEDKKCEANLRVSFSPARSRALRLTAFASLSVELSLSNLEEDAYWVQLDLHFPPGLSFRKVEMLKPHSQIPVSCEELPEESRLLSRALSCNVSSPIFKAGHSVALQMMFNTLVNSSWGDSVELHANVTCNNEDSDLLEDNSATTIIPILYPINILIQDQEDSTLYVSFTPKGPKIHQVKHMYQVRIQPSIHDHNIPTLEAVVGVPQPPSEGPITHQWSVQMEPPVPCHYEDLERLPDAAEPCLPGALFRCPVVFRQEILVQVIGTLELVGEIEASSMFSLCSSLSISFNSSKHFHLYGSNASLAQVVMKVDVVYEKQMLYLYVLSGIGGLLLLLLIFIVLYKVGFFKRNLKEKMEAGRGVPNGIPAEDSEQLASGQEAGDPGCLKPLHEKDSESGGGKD
Sequence of LFA-1 (P05107 23-769, further chain): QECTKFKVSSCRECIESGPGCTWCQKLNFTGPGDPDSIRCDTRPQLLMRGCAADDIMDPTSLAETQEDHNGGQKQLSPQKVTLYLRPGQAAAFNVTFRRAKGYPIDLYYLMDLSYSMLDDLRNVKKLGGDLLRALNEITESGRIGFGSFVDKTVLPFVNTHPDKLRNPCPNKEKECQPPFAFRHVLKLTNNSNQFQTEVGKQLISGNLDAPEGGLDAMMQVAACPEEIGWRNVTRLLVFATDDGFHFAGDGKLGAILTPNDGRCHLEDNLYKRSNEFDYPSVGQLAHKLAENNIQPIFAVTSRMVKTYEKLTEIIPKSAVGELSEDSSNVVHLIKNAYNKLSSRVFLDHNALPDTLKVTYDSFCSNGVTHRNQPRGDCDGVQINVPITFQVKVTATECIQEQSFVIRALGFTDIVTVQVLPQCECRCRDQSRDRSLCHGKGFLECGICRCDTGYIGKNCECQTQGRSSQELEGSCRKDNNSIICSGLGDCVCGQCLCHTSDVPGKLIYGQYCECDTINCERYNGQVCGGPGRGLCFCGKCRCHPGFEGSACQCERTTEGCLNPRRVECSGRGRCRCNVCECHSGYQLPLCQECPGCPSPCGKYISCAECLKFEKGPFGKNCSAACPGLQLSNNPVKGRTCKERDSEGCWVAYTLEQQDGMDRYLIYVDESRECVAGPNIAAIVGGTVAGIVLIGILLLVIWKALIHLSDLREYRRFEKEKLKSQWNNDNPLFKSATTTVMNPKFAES

| decrease in actin polymerization of naive T cells induced by CXCL12 or CCL21 (FITC-phalloidin, FACS) (CCR2 (mouse)) [%] | decrease in migration of naive T cells in a Transwell assay towards CXCL12 or CCL21 after pretreatment with CCL2 (0.1 ng/ml) (CCR2 (mouse)) [%] | percent of cellular tethers to ICAM-1 blocked by LFA-1 blockers [1] [%] | Substance |
| --- | --- | --- | --- |
| 40 to 50 | 40 to 50 | – | CCL2 (ligand) |
| – | – | > 90 | LFA-1 (from UniProt P20701 26-1170; P05107 23-769) (receptor; other documents disagree on this pair) |
